The source of these data is US20260125472A1 (HEFEI TG IMMUNOPHARMA, published 2026).

Changes are numbered by the printed parent chain. Like-named read-outs stand apart in the source and are kept apart here.

The target of assay [1] is T1, PDL1 on A-375 melanoma cells, HCT-15 colorectal cancer cells and A549 lung cancer cells (UniProt Q9NZQ7 19-290, limits assumed).
T1 construct: whole, on cells
The assay is described as follows: flow cytometry, A549 cells, MFI [panel B]. The essentials: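 Cells were blocked with goat serum at 4° C for 30 min, then incubated with serially diluted bispecific antibodies or hIgG1LALA control at 4° C for 30 min. Bound antibody was detected with Alexa-647 anti-human IgG (4° C, 30 min, dark) and read by flow cytometry.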
For orientation: A flow cytometer gives signals particle by particle.

The target in assay [2] is T2, CD3E&D protein (UniProt P04234 22-105).
T2 construct: Purchased from Acro; also called CD3 E&D antigens; CD3E&D antigen protein
T2 sequence (chain, as listed by the source limits assumed, chain 1 of 2): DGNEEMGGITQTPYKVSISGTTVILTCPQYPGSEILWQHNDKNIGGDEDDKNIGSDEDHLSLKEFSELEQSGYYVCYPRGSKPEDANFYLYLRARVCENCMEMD
T2 sequence (P04234 22-105 limits assumed, chain 2 of 2): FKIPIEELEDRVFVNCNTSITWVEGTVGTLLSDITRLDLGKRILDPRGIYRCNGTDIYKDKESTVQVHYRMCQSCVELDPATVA
The assay is described as follows: ELISA, coated CD3E&D protein, OD450 [panel B]. The text has this: In this example, the binding properties of the CD3×Trop2 and CD3×PDL1 bispecific antibody (the production method and the amino acid sequences of the heavy and light chains were shown in Example 1) were detected by using ELISA. The CD3E&D, Trop2, or PDL1 protein was coated onto 96-well plates by inventors, and the strength of the signal after the addition of the antibody was used to determine the binding properties of the antibody and the corresponding protein.
(1) CD3E&D protein (purchased from Acro) was diluted to 2 μg/ml with PBS buffer, added to a 96-well plate at a volume of 100 μL/well, and placed at 4° C. overnight. The PBS buffer in the 96-well plate was aspirated, and the plate was washed 6 times with PBST (pH 7.2 PBS containing 0.1% Tween 20) buffer. Then, 200 μL/well PBS/10% BSA was added and incubated at 37° C. for 2 h for blocking. The blocking solution was removed, and the plate was washed 6 times with PBST. Then, the to-be-tested bispecific antibodies serially diluted with PBST/0.05% BSA, Cross3×Trop2, Cross303×Trop2, Cross307×Trop2, Cross308×Trop2, Cross309×Trop2, Cross310×Trop2, Cross311×Trop2, Cross312×Trop2, Cross313×Trop2, Cross314×Trop2, Cross316×Trop2, Cross317×Trop2, Cross318×Trop2, Cross323×Trop2, Cross325×Trop2, Cross326×Trop2, Cross3×PDL1, Cross303×PDL1, Cross307×PDL1, Cross308×PDL1, Cross309×PDL1, Cross310×PDL1, Cross311×PDL1, Cross312×PDL1, Cross313×PDL1, Cross314×PDL1, Cross316×PDL1, Cross317×PDL1, Cross318×PDL1, Cross323×PDL1, Cross325×PDL1, Cross326×PDL1, and control IgG1LALA (purchased from Bio-Tech) were added at 100 μL/well, and incubated at 37° C. for 1 h. The reaction system was removed, and the plate was washed 6 times with PBST. Then, the cells were incubated at 37° C. for 1 h with HRP (horseradish peroxidase)-labeled anti-human secondary antibody (Fab specific) (purchased from Sigma) diluted with PBST/0.05% BSA at 100 μL/well. After the plate was washed six times with PBST, 80 μL/well TMB (tetramethylbenzidine) was added and incubated at room temperature for 3 min. […] The absorbance was read at 450 nm using a microplate reader.
For orientation: In an ELISA, binding on a coated surface is turned into a signal by an enzyme label.

In the next assay the target is T3, PDL1 protein (UniProt Q9NZQ7 19-238).
T3 construct: Bought recombinant protein
T3 sequence (Q9NZQ7 19-238 limits assumed): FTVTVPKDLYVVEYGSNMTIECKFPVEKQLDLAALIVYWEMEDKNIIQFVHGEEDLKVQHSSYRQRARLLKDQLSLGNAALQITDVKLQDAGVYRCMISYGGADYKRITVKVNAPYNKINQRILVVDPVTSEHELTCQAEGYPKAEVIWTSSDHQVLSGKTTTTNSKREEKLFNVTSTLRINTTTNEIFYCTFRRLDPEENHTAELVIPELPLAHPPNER
The assay is described as follows: ELISA, coated PDL1 protein, OD450 [panel B]. The method, then: (3) PDL1 protein (purchased from Acro) was diluted to 2 μg/ml with PBS buffer, added to a 96-well plate at a volume of 100 μL/well, and placed at 4° C. overnight. The PBS buffer in the 96-well plate was aspirated, and the plate was washed 6 times with PBST (pH 7.2 PBS containing 0.10% Tween 20) buffer. Then, PBS/10% BSA was added at 200 μL/well and incubated at 37° C. for 2 h for blocking. The blocking solution was removed, and the plate was washed six times with PBST. Then, the to-be-tested bispecific antibodies serially diluted with PBST/0.05% BSA, Cross3×PDL1, Cross303×PDL1, Cross307×PDL1, Cross308×PDL1, Cross309×PDL1, Cross310×PDL1, Cross311×PDL1, Cross312×PDL1, Cross313×PDL1, Cross314×PDL1, Cross316×PDL1, Cross317×PDL1, Cross318×PDL1, Cross323×PDL1, Cross325×PDL1, Cross326×PDL1, and control IgG1LALA (purchased from Bio-Tech) were added at 100 μL/well, and incubated at 37° C. for 1 h. The reaction system was removed, and the plate was washed 6 times with PBST. Then, the cells were incubated at 37° C. for 1 h with HRP (horseradish peroxidase)-labeled anti-human secondary antibody (Fab specific) (purchased from Sigma) serially diluted with PBST/0.05% BSA at 100 μL/well. After the plate was washed six times with PBST, TMB (tetramethylbenzidine) was added at 80 μL/well and incubated at room temperature for 3 min. 4 M sulfuric acid was added at 80 μL/well to terminate the reaction. The absorbance was read at 450 nm using a microplate reader.

Assay [3] has as its target T4, CD3 on CD8 T cells (Homo sapiens (Human), UniProt P07766 23-207).
T4 construct: Native CD3 complex on CD8 T cells among PBMCs; also called T cells (PBMCs gated with anti-human CD8 antibody)
The assay is described as follows: flow cytometry, CD8 T cells in PBMCs, binding ratio % [panel A]. The method, then: (1) PBMCs were diluted to 2×10⁶/ml with PBS and added to a 1.5 ml EP tube at 100 μl/tube, goat serum was added thereto at 10 μl/tube. The cells were blocked at 4° C. for 30 min. The serially diluted bispecific antibodies, Cross3×Trop2, Cross303×Trop2, Cross307×Trop2, Cross308×Trop2, Cross309×Trop2, Cross310×Trop2, Cross311×Trop2, Cross312×Trop2, Cross313×Trop2, Cross314×Trop2, Cross316×Trop2, Cross317×Trop2, Cross318×Trop2, Cross323×Trop2, Cross325×Trop2, Cross326×Trop2, Cross3×PDL1, Cross313×PDL1, Cross316×PDL1, Cross325×PDL1, and control hIgG1LALA (purchased from Bio-Tech) were added and incubated at 4° C. for 30 min. 1 ml of PBS was added to the EP tube, followed by centrifugation at 3500 rpm for 5 min at 4° C. The supernatant was discarded, and the system was washed again with PBS. After centrifugation, the supernatant was discarded, and the cells were resuspended with PBS at 100 μl/tube. 1 μl/tube Alexa-647-labeled goat anti-human IgG secondary antibody (purchased from Jackson lab) and 0.5 μl/tube PerCP-Cy5.5-labeled anti-human CD8 antibody were added and incubated at 4° C. in the dark for 30 min. The cells were washed twice with PBS. After centrifugation, the supernatant was discarded. The cells were resuspended with 200 μl/tube of PBS and assay is performed by flow cytometry.

Assay [4] concerns the target T2, CD3E&D protein. Nature of the assay: ELISA, coated CD3E&D protein, OD450 [panel C]. The method, then:
In this example, the binding properties of the parental antibody Cross3 and the CD3 affinity-reduced antibody (the production method and the amino acid sequences of the heavy and light chains were shown in Example 1) were detected by ELISA. The CD3E&D protein was coated onto a 96-well plate by the inventors, and the strength of the signal after the addition of the antibody was used to determine the binding properties of the antibody and CD3E&D.
CD3E&D protein (purchased from Acro) was diluted to 2 μg/ml with PBS buffer, added to a 96-well plate at a volume of 100 μL/well, and placed at 4° C. overnight. The PBS buffer in the 96-well plate was aspirated, and the plate was washed 6 times with PBST (pH 7.2 PBS containing 0.1% Tween 20) buffer. Then, 200 μL/well PBS/10% BSA was added and incubated at 37° C. for 2 h for blocking. The blocking solution was removed, and the plate was washed six times with PBST. Then, the to-be-tested antibodies serially diluted with PBST/0.05% BSA, Cross3, Cross303, Cross307, Cross308, Cross309, Cross310, Cross311, Cross312, Cross313, Cross314, Cross316, Cross317, Cross318, Cross323, Cross325, Cross326, and control IgG1 (purchased from Bio-Tech) were added at 100 μL/well, and incubated at 37° C. for 1 h. The reaction system was removed, and the plate was washed 6 times with PBST. Then, the cells were incubated at 37° C. for 1 h with HRP (horseradish peroxidase)-labeled anti-human secondary antibody (Fab specific) (purchased from Sigma) serially diluted with PBST/0.05% BSA at 100 μL/well. The plate was washed six times with PBST, TMB (tetramethylbenzidine) was added at 80 μL/well and incubated at room temperature for 3 min. 4 M sulfuric acid was added at 80 μL/well to terminate the reaction. The absorbance was read at 450 nm using a microplate reader.

The target in assay [5] is T4, CD3 on CD8 T cells. The assay is described as follows: flow cytometry, CD8 T cells in PBMCs, binding ratio % [panel A]. How it is done:
PBMCs were diluted with PBS to 2×10⁶/mL and added to a 1.5 ml EP tube at a volume of 100 μL/tube, 10 μL/tube of goat serum was added thereto and incubated at 4° C. for 30 min for blocking. […] 1 mL of PBS was added to the EP tube, followed by centrifugation at 3500 rpm for 5 min at 4° C. The supernatant was discarded, and the cells were washed again with PBS. After centrifugation, the supernatant was discarded, and the cells were resuspended with 100 μl/tube PBS. 1 μl/tube Alexa-647-labeled goat anti-human secondary antibody (purchased from Jackson lab) and 0.5 μl/tube PerCP-Cy5.5-labeled anti-human CD8 antibody were added and incubated at 4° C. in the dark for 30 min. The cells were washed twice with PBS, and the supernatant was discarded after centrifugation. The cells were resuspended with […] of PBS and assayed using the flow cytometry.
The source holds these as a separate data set.

The target in assay [6] is T2, CD3E&D protein. The assay is described as follows: SPR (Biacore 8K), antibody on CM5 chip, CD3 E&D antigen as analyte. More on the design: Fold change: reference not given here. How it is done: In a Biacore 8K (Cytiva) system, the antibody was diluted to 10 μg/mL in HBS-EP running buffer and coupled to a CM5 chip (Cytiva) at a flow rate of 10 μL/min.
A general note: Surface plasmon resonance follows binding to a sensor surface in real time, without labels.

T4 sequence (P07766 23-207 limits assumed): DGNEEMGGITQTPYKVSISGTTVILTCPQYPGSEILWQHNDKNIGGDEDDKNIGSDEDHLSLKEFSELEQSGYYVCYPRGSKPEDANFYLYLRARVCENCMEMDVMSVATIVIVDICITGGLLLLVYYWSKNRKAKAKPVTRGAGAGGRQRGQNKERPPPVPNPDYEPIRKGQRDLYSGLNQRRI
T1 sequence (Q9NZQ7 19-290 limits assumed): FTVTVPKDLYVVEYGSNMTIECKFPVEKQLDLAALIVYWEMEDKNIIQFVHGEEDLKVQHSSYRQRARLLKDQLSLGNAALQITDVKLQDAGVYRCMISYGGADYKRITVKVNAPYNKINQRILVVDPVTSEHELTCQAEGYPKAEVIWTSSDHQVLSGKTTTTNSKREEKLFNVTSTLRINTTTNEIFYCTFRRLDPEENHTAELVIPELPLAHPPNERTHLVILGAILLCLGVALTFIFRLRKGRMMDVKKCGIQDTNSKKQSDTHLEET

B1: Cross318×PDL1 (bispecific antibody, human IgG1, kappa, L234A L235A)
scFv: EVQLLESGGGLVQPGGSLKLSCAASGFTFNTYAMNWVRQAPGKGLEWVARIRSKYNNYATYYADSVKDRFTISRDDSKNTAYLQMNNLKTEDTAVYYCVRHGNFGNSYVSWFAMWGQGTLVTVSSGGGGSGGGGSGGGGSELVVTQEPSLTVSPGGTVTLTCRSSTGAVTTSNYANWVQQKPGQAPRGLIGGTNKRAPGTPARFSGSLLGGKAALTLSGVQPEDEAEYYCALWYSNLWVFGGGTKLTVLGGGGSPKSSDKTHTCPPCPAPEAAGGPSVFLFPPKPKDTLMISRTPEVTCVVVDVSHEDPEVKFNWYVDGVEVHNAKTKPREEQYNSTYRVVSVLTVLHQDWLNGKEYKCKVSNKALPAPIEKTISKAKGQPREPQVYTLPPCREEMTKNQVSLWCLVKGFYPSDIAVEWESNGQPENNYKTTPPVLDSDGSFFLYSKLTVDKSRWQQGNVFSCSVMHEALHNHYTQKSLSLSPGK
heavy: QVQLVQSGAEVKKPGASVKVSCKASGYSFTGYYMHWVRQAPGQGLEWIGRINPYNGATTYSQNFKDRATMTVDTSISTAYMELSRLRSDDTAVYYCVPTGMGYFLMDYWGQGTLVTVSSASTKGPSVFPLAPSSKSTSGGTAALGCLVKDYFPEPVTVSWNSGALTSGVHTFPAVLQSSGLYSLSSVVTVPSSSLGTQTYICNVNHKPSNTKVDKKVEPKSCDKTHTCPPCPAPEAAGGPSVFLFPPKPKDTLMISRTPEVTCVVVDVSHEDPEVKFNWYVDGVEVHNAKTKPREEQYNSTYRVVSVLTVLHQDWLNGKEYKCKVSNKALPAPIEKTISKAKGQPREPQVCTLPPSREEMTKNQVSLSCAVKGFYPSDIAVEWESNGQPENNYKTTPPVLDSDGSFFLVSKLTVDKSRWQQGNVFSCSVMHEALHNHYTQKSLSLSPGK
light: DIQLTQSPSFLSASVGDRVTITCKASQDVGSAVVWYQQKPGKAPKLLIYWASTRHTGVPSRFSGSGSGTEFTLTISSLQPEDFATYFCQQFTSYPTFGQGTKLEIKRTVAAPSVFIFPPSDEQLKSGTASVVCLLNNFYPREAKVQWKVDNALQSGNSQESVTEQDSKDSTYSLSSTLTLSKADYEKHKVYACEVTHQGLSSPVTKSFNRGEC
For orientation: EC50 (read off the curve) means the concentration giving half of the maximal effect. Regarding B1, the “EC50 (read off the curve)” value was about 1 µg/mL in assay [1], about 1 µg/mL with CD3E&D protein [2] and about 0.2 µg/mL in the assay with PDL1 protein.

B2: Cross323×PDL1 (bispecific antibody, human IgG1, kappa, L234A L235A)
scFv: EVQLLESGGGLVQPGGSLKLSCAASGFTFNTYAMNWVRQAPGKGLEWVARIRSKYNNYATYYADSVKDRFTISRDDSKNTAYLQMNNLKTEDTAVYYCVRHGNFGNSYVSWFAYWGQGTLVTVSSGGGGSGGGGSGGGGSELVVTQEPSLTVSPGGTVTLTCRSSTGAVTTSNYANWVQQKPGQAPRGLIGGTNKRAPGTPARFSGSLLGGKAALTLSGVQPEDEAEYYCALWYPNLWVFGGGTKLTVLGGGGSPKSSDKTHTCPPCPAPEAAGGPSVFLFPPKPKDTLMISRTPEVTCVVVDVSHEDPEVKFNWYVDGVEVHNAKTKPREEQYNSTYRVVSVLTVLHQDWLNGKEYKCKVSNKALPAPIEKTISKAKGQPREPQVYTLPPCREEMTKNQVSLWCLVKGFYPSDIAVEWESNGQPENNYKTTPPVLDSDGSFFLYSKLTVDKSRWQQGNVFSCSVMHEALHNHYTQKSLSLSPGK
heavy: B1 heavy
light: B1 light
Consider B2, for which the entries for the 50% effective concentration (EC50 (read off the curve)) in the assay with CD3E&D protein [2] and with PDL1 protein were about 1 µg/mL and about 0.2 µg/mL, respectively.

B3: Cross325×PDL1 (bispecific antibody, human IgG1, kappa, L234A L235A)
scFv: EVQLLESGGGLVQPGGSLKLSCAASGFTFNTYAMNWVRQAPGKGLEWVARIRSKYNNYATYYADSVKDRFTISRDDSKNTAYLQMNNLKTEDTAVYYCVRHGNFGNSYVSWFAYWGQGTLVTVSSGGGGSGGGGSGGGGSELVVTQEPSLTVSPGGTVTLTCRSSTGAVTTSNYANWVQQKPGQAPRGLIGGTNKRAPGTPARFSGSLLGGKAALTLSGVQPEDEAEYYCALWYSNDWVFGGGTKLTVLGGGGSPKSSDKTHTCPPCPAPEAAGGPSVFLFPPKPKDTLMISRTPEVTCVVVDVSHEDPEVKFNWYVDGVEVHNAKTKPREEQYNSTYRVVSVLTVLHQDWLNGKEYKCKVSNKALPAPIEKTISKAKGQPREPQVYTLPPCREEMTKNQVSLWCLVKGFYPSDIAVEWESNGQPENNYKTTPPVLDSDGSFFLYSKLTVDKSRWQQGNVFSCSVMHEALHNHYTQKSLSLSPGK
heavy: B1 heavy
light: B1 light
Regarding B3, the “EC50 (read off the curve)” value with CD3 on CD8 T cells [3] was about 0.4 µg/mL; in assay [1] it was about 1 µg/mL; with CD3E&D protein [2] it was about 0.7 µg/mL; in the assay with PDL1 protein, about 0.1 µg/mL.

B4: Cross323 (antibody, human IgG1, kappa, V domains shown)
VH: EVQLLESGGGLVQPGGSLKLSCAASGFTFNTYAMNWVRQAPGKGLEWVARIRSKYNNYATYYADSVKDRFTISRDDSKNTAYLQMNNLKTEDTAVYYCVRHGNFGNSYVSWFAYWGQGTLVTVSS
VL: ELVVTQEPSLTVSPGGTVTLTCRSSTGAVTTSNYANWVQQKPGQAPRGLIGGTNKRAPGTPARFSGSLLGGKAALTLSGVQPEDEAEYYCALWYPNLWVFGGGTKLTVLR
One may read the Kd as a measure of binding affinity in units of concentration. By koff is commonly meant the rate constant with which the complex falls apart. Broadly, the kon is a measure of how fast the partners come together. In the case of B4, in the assay with CD3E&D protein [4], the concentration giving a half-maximal response (EC50 (read off the curve)) is about 0.03 µg/mL. Also, the “EC50 (read off the curve)” value with CD3 on CD8 T cells [5] was about 0.3 µg/mL. In the assay with CD3E&D protein [6], this molecule had a Fold change of 19.9, a dissociation constant Kd of 3.28 nM, an off-rate (koff) of 0.0094 s⁻¹ and a kon of 2.86e+06 M⁻¹ s⁻¹.

B5: Cross325 (antibody, human IgG1, kappa, V domains shown)
VH: B4 VH
VL: B4 VL with P95S, L97D
For the molecule B5, in the assay with CD3E&D protein [4], the “EC50 (read off the curve)” value is about 0.03 µg/mL. For the same molecule, in the assay with CD3 on CD8 T cells [5], the “EC50 (read off the curve)” value is about 0.3 µg/mL. For the same molecule, in the assay with CD3E&D protein [6], the Fold change is 15.6, the Kd was determined as 2.57 nM, the koff is 0.00366 s⁻¹ and the kon amounted to 1.42e+06 M⁻¹ s⁻¹.
